Reference: paper PMC4574351, “Tubulin cofactors and Arl2 are cage-like chaperones that regulate the soluble αβ-tubulin pool for microtubule dynamics” (eLife, 2015)
Each block holds one binder with its values, some of them ahead of it.

Legend:
[1] = biological target: TBC-DEG:αβ-tubulin complex (S. cerevisiae | porcine) (UniProt P40987); test: SEC-MALS; WTC-03S5 column; purified TBC-DEG (subunits co-expressed and co-purified), αβ-tubulin, TBCC and their complexes; ternary complex with GDP·ALFx (wild type) or GTP (Q73L)
[2] = biological target: TBC-DEG:αβ-tubulin complex (S. cerevisiae | porcine) (UniProt P40987)
[3] = biological target: TBC-DEG:αβ-tubulin complex (S. cerevisiae | porcine) (UniProt P40987); remark: listed apart in the source
[4] = biological target: T1, Tubulin cofactor D (TBCD), S. cerevisiae Cin1p (S. cerevisiae), P40987; test: SEC-MALS; WTC-03S5 column; purified TBC-DEG (subunits co-expressed and co-purified), αβ-tubulin, TBCC and their complexes; ternary complex with GDP·ALFx (wild type) or GTP (Q73L); details: remark: other sources report otherwise
T1 chain: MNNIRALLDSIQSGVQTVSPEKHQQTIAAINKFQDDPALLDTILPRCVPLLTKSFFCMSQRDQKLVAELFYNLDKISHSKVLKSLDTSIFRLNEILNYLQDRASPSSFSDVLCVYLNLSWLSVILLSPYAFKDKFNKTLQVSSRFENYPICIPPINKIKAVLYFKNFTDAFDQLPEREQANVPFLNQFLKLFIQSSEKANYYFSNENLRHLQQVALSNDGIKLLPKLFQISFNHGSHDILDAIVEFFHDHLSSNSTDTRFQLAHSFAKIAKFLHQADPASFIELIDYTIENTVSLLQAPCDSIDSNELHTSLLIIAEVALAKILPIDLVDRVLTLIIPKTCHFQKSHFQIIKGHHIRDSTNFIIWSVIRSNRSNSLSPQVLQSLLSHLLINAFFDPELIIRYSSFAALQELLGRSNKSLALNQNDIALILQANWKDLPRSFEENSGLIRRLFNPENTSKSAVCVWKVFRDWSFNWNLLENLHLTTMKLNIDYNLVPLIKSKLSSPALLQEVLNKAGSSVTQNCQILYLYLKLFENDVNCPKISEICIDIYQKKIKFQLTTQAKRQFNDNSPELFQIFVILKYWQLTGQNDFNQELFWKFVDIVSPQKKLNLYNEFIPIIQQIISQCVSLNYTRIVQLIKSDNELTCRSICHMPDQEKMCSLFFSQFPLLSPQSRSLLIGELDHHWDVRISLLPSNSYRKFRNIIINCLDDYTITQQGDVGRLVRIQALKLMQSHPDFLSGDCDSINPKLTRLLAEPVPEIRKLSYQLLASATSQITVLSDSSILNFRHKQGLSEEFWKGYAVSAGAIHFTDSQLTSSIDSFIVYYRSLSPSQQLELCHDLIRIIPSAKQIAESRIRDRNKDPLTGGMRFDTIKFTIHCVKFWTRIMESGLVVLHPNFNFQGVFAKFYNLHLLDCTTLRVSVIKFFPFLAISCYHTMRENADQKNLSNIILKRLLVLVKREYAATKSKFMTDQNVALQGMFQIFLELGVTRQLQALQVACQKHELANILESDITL

stoichiometry N [1]: 1 | steady-state GTP hydrolysis kcat, equimolar αβ-tubulin and TBCC added to TBC-DEG (number as in the text) [2]: 0.0308 s⁻¹ | steady-state GTP hydrolysis kcat (malachite green), 1 μM TBC-DEG:1 μM TBCC:1 μM αβ-tub [3]: 31300 M⁻¹ s⁻¹
B1: Tubulin cofactor C (TBCC), S. cerevisiae Cin2p (natural protein)
chain: MDFTAKIKELERELSETSDYKTLQKKTISLRSELNTLSHSLTSYEKEHFSNDIENVLKSINAKLSESKGKKRLFSFKQKNSSSAVHKNVERTELANAPAYTTTLKKHYVLEKGDSAFENLEFCTVTSTTDYSGNSALSGSLCFRNITKCVINLQRIFFQTGSIFITDCTDSIIFLRSPSDKDFQIRLRDLKNCKILIEKLSPSIDCKQVVIIENCHKCIFNASTRDHLIIQDFSNPFQSEETEDNSAFAFEDFDICNKDTMQLFRAYL

steady-state GTP hydrolysis kcat, 1 μM TBC-DEG:1 μM TBCC-Cterm:1 μM αβ-tub [3]: 18800 M⁻¹ s⁻¹
B2: TBCC C-terminal β-helix domain (residues 100-267) (domain or fragment)
chain: YTTTLKKHYVLEKGDSAFENLEFCTVTSTTDYSGNSALSGSLCFRNITKCVINLQRIFFQTGSIFITDCTDSIIFLRSPSDKDFQIRLRDLKNCKILIEKLSPSIDCKQVVIIENCHKCIFNASTRDHLIIQDFSNPFQSEETEDNSAFAFEDFDICNKDTMQLFRAY

stoichiometry N [4]: 1
B3: Tubulin cofactor E (TBCE), S. cerevisiae Pac2p, P39937 1-518 (natural protein)
chain: MTYEIGDRLKIGGYFCTIKFIGVIKPWPSVKAYGVEWDDHSRGKHSGTIDDIHYFDVQIPNSGSFLKESKIKSPGVRRITFYEALSEKYGGSSNNINDLSIGNKRVEGLGFDELNARNKNYKKLRKIALRDSDVAILFQNQDELNRVIQNCVNVKDLDLSLNLFTNINSLCEFIEPLKNLESLNISQNKLLSGWDNLKEYDLSHIKTLRLSSCGLSYKHIGKLLKSFRTLKMLDLSYNNLTSAGIQNFENEIPCTLEELNISGNNLISFPLFPKNLTLKGLNVSNNQISRAPSIAIYSVESLDITDNKFKERSLIDDLNKTFPSLKNIHLSGNEFNYNGNYINVEEQATFYEVLARFDRVMVLNGSICDVKTRREAEMFFVSKVMNNELSYDTNLPRWSSLIKSYEIDMSKLSFNNERETRQSLVLKIKIRAGKKPSSDLDYWVLPSFTVRYVKSVICRKLNFDILNVKLFHENSEGMINEIKYNFRPISDFNVVNGDIIHVSSPVNNKSIQKVNSPS
